Data: patent publication US20090175866A1 (published 2009)
Residue numbers refer to the chain shown, from its start.

T1: FGFR1 (Table 1) (UniProt P11362 22-376, limits assumed)
T1 construct: the construct is not described
T1 sequence (looked up): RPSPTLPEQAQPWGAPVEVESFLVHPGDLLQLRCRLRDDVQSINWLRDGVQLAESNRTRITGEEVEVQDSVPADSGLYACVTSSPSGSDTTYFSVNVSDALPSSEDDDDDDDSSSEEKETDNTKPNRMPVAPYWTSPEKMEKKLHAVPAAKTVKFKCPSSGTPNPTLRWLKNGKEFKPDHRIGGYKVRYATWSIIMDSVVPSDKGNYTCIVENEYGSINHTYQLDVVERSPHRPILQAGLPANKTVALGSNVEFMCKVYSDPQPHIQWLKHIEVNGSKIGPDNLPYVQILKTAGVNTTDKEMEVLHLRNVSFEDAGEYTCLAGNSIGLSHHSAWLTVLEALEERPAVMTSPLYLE

B1: PRO-029 (Fab, V domains shown)
VH: QVQLVQSGAEVKKPGASVKVSCKASGYTFTSYYMHWVRQAPGQGLEWMGWINPNSGGTNYAQKFQGRVTMTRDTSISTAYMELSSLRSEDTAVYYCARTWQYSYFYYLDGGYYFDIWGQGTLVTVSS
VL: DIVLTQSPATLSLSPGERATLSCRASQSVSSSYLAWYQQKPGQAPRLLIYGASSRATGVPARFSGSGSGTDFTLTISSLEPEDFATYYCQQTNNAPVTFGQGTKVEIKR
notes: HuCAL clone
B2: PRO-012 (Fab, V domains shown)
VH: QVQLKESGPALVKPTQTLTLTCTFSGFSLSTSGVGVGWIRQPPGKALEWLALIDWDDDKYYSTSLKTRLTISKDTSKNQVVLTMTNMDPVDTATYYCARYHSWYEMGYYGSTVGYMFDYWGQGTLVTVSS
VL: DIELTQPPSVSVAPGQTARISCSGDALGDKYASWYQQKPGQAPVLVIYDDSDRPSGIPERFSGSNSGNTATLTISGTQAEDEADYYCQSYDFDFAVFGGGTKLTVLG
notes: HuCAL clone; the IC50 may be of the Fab-dHLX format
B3: PRO-054 (Fab, V domains shown)
VH: QVQLVQSGAEVKKPGASVKVSCKASGYTFTSYYMHWVRQAPGQGLEWMGWINPNSGGTNYAQKFQGRVTMTRDTSISTAYMELSSLRSEDTAVYYCARNMAYTNYQYVNMPHFDYWGQGTLVTVSS
VL: B2 VL with F92Y, D93F, F94K, A95L
notes: HuCAL clone
B4: PRO-001 Fab (Fab, V domains shown)
VH: QVQLQQSGPGLVKPSQTLSLTCAISGDSVSSNSAAWNWIRQSPGRGLEWLGRTYYRSKWYNDYAVSVKSRITINPDTSKNQFSLQLNSVTPEDTAVYYCARSYYPDFDYWGQGTLVTVSS
VL: DIELTQPPSVSVAPGQTARISCSGDALGDKYASWYQQKPGQAPVLVIYDDSDRPSGIPERFSGSNSGNTATLTISGTQAEDEADYYCQSYDGPDLWVFGGGTKLTVLG
notes: Human Fab from the HuCAL-Fab-1 library; also called human anti-FGFR3 Fab PRO-001; anti-FGFR3 antibody
B5: PRO-002 (Fab, V domains shown)
VH: QVQLVQSGAEVKKPGASVKVSCKASGYTFTSYYMHWVRQAPGQGLEWMGWINPNSGGTNYAQKFQGRVTMTRDTSISTAYMELSSLRSEDTAVYYCARDFLGYEFDYWGQGTLVTVSS
VL: B4 VL with G92Y, P93S, D94A, L95D, W96Y
notes: as for B2
B6: PRO-021 (Fab, V domains shown)
VH: QVQLVQSGAEVKKPGSSVKVSCKASGGTFSSYAISWVRQAPGQGLEWMGGIIPIFGTANYAQKFQGRVTITADESTSTAYMELSSLRSEDTAVYYCARDNWFKPFSDVWGQGTLVTVSS
VL: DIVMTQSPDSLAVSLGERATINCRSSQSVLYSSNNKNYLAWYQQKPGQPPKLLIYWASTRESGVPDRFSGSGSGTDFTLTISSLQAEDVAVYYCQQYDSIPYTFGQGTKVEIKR
notes: as for B2
B7: PRO-024 (Fab, V domains shown)
VH: B6 VH with D99V, W101H, F102W, K103T, P104Y, F105T, S106F, V108Y
VL: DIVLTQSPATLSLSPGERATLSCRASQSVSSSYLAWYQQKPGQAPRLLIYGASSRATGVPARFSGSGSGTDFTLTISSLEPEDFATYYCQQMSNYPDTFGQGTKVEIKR
B8: PRO-026 (Fab, V domains shown)
VH: QVQLVQSGAEVKKPGASVKVSCKASGYTFTSYYMHWVRQAPGQGLEWMGWINPNSGGTNYAQKFQGRVTMTRDTSISTAYMELSSLRSEDTAVYYCARGYWYAYFTYINYGYFDNWGQGTLVTVSS
VL: DIALTQPASVSGSPGQSITISCTGTSSDVGGYNYVSWYQQHPGKAPKLMIYDVSNRPSGVSNRFSGSKSGNTASLTISGLQAEDEADYYCQSYDNNSDVVFGGGTKLTVLG
notes: HuCAL clone; the VL is headed 'MS-Pro-26-VL'; also called MS-Pro-26
B9: PRO-055 (Fab, V domains shown)
VH: QVQLVQSGAEVKKPGASVKVSCKASGYTFTSYYMHWVRQAPGQGLEWMGWINPNSGGTNYAQKFQGRVTMTRDTSISTAYMELSSLRSEDTAVYYCARSMNSTMYWYLRRVLFDHWGQGTLVTVSS
VL: B8 VL with N95M, N96Y, S97N, D98Y, V99I

Each binder was assayed against T2, wild type FGFR3 expressed on cells (UniProt P22607 23-806, limits assumed) (assay: cell-based or functional assay).
T2 sequence (P22607 23-806 limits assumed): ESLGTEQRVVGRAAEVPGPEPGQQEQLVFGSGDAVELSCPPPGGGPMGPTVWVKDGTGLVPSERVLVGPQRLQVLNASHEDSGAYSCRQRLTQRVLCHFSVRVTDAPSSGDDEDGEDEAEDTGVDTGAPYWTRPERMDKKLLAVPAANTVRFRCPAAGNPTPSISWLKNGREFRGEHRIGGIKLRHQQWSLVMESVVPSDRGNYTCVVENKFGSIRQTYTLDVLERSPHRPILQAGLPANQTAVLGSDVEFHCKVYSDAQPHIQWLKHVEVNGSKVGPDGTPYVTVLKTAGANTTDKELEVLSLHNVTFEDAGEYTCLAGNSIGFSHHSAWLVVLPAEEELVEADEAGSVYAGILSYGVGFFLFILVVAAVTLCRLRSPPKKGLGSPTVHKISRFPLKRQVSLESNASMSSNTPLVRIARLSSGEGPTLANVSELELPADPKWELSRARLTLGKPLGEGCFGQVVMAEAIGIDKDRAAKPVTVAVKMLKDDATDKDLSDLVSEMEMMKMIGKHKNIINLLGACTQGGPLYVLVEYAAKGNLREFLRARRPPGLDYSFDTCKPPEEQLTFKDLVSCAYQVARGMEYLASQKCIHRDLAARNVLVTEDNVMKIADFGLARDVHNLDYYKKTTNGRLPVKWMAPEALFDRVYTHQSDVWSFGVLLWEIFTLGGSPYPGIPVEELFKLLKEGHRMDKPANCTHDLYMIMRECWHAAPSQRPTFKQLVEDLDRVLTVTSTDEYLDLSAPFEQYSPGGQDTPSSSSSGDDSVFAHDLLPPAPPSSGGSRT

Going from B1 to B2, the “IC50 FGFR3 (FGF9), FDCP-FGFR3 proliferation assay (dHLX format)” value (shortened to “IC50 FGFR3 (FGF9)”) rises from 20 nM to 58 nM (2.9-fold).

Going from B3 to B4, the “IC50 FGFR3 (FGF9)” value falls from 45 nM to 19 nM (2.4-fold).

First: B5
Second: B6
The “IC50 FGFR3 (FGF9)” value of the first is 7.2-fold higher: 360 nM for the first, 50 nM for the second.

B7 and B8 are the same in “IC50 FGFR3 (FGF9)” value: 70 nM for the first, 70 nM for the second.

B9 was tested, and the “IC50 FGFR3 (FGF9)” value was 34 nM.

These binders were tested against T1, FGFR1 (Table 1) (assay: BIAcore and/or FACS).

Going from B1 to B3, the Kd falls from 29 nM to 2.5 nM (12-fold). The second binds more tightly here.

B8 gave a Kd of 32 nM.

Each binder was assayed against T2, wild type FGFR3 expressed on cells (assay: FACS).

First: B1
Second: B2
The Kd of the first is lower: < 1 nM for the first, 6.5 nM for the second. The first binds more tightly here.

Compared with B4, B5 is 61-fold higher in Kd: 0.7 nM for the first, 43 nM for the second. The first binds more tightly here.

B6 and B8 are within 1.5-fold of each other in Kd: 1.1 nM for the first, 1.4 nM for the second.

Each binder was assayed against FGFR3-Y373C expressed on B9 cells (UniProt P22607 23-806) (assay: cell-based or functional assay).
Sequence of FGFR3-Y373C expressed on B9 cells (P22607 23-806 Y373C limits assumed): as the sequence (P22607 23-806 limits assumed) above, with Y351C counted along it

With B4 the “IC50 of FGF-stimulated growth of B9 cells expressing Y373C-FGFR3” value was ~3 µg/mL.

The binders below were run against FGFR3-F384L expressed on B9 cells (UniProt P22607 23-806) (assay: cell-based or functional assay).
Sequence of FGFR3-F384L expressed on B9 cells (P22607 23-806 F384L limits assumed): as the sequence (P22607 23-806 limits assumed) above, with F362L counted along it

B4 was tested, and the “IC50 of FGF-stimulated growth of B9 cells expressing FGFR3 F384L” value was ~3 µg/mL.

Target: T2, wild type FGFR3 expressed on cells
Assay: cell-based or functional assay
Remark: another data set of the same source

For B4, the “IC50 of FGF stimulated proliferation of FDCP-FGFR3 cells (XTT)” value was 0.5 µg/mL.
